Here are results for six molecules from patent publication US20260001928A1 (CORTERIA PHARMACEUTICALS, priority 2022, published 2026).

*1 amine or outer side, *2 acyl side, *3 side chain or, on linkers, in order; H or OH if unused. Side-chain parts run from the residue outwards. [ ]: non-standard residue; d: D form. The star is where a group is joined. C16 diacid = O=C(O)CCCCCCCCCCCCCCC(=O)*; γGlu = O=C(O)[C@H](CCC(=O)[*:2])N[*:1]; Api = NC1(C(=O)O)CCNCC1; Aib = CC(C)(N)C(=O)O; Propionyl = CCC(=O)*; Butyryl = CCCC(=O)*

The target in experiment [1] is human corticotropin-releasing factor 2a (CRF2a receptor) (human), Q13324. Description: cell-based or functional assay.
Experiment [2] concerns the target T1, CRF1R receptor (UniProt P34998 24-415, limits assumed).
T1 sequence (looked up): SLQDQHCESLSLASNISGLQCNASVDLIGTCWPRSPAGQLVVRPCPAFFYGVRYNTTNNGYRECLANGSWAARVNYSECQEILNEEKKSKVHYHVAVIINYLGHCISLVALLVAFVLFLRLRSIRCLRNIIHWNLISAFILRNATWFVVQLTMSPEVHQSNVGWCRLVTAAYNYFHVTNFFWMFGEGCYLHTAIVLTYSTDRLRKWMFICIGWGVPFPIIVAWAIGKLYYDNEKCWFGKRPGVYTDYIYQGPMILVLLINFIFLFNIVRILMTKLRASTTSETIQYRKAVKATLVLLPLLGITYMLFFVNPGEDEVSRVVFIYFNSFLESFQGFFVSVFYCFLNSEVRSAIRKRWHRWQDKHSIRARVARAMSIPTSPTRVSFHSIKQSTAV
The experiment in a line: cell-based or functional assay.

human corticotropin-releasing factor 2a (CRF2a receptor) (human), Q13324, sequence (Q13324 20-411): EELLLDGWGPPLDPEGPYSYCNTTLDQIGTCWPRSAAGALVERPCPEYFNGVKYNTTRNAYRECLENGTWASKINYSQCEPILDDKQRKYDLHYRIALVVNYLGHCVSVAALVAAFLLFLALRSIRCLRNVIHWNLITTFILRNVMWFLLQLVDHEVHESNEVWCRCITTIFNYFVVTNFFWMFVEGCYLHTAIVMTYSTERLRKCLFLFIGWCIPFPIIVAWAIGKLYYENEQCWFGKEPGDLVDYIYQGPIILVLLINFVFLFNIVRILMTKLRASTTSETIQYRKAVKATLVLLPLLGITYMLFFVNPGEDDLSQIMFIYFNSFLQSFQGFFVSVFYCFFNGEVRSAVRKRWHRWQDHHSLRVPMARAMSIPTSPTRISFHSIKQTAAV

B1: SEQ ID NO 78 (peptide)
peptide: Propionyl-VLSLD[dV]PIKLK([γGlu-C16 diacid])KILLEQEKQKKQREQAETN[Aib]QILAQV-NH2
SMILES: CCC(=O)N[C@H](C(=O)N[C@@H](CC(C)C)C(=O)N[C@@H](CO)C(=O)N[C@@H](CC(C)C)C(=O)N[C@@H](CC(=O)O)C(=O)N[C@@H](C(=O)N1CCC[C@H]1C(=O)N[C@H](C(=O)N[C@@H](CCCCN)C(=O)N[C@@H](CC(C)C)C(=O)N[C@@H](CCCCNC(=O)CC[C@H](NC(=O)CCCCCCCCCCCCCCC(=O)O)C(=O)O)C(=O)N[C@@H](CCCCN)C(=O)N[C@H](C(=O)N[C@@H](CC(C)C)C(=O)N[C@@H](CC(C)C)C(=O)N[C@@H](CCC(=O)O)C(=O)N[C@@H](CCC(N)=O)C(=O)N[C@@H](CCC(=O)O)C(=O)N[C@@H](CCCCN)C(=O)N[C@@H](CCC(N)=O)C(=O)N[C@@H](CCCCN)C(=O)N[C@@H](CCCCN)C(=O)N[C@@H](CCC(N)=O)C(=O)N[C@@H](CCCNC(=N)N)C(=O)N[C@@H](CCC(=O)O)C(=O)N[C@@H](CCC(N)=O)C(=O)N[C@@H](C)C(=O)N[C@@H](CCC(=O)O)C(=O)N[C@H](C(=O)N[C@@H](CC(N)=O)C(=O)NC(C)(C)C(=O)N[C@@H](CCC(N)=O)C(=O)N[C@H](C(=O)N[C@@H](CC(C)C)C(=O)N[C@@H](C)C(=O)N[C@@H](CCC(N)=O)C(=O)N[C@H](C(N)=O)C(C)C)[C@@H](C)CC)[C@@H](C)O)[C@@H](C)CC)[C@@H](C)CC)C(C)C)C(C)C
Take B1: in experiment [1], the EC50 [nM] (cAMP) stood at 0.73 nM. Moreover, the “Emax (% I)” value in experiment [2] was 7%.

B2: SEQ ID NO 57 (peptide)
peptide: Ac-IVLSLD[dV]PIKLK([γGlu-C16 diacid])KILLEQEKQKKQREQAETN[Api]QILAQV-NH2
SMILES: CC[C@H](C)[C@H](NC(C)=O)C(=O)N[C@H](C(=O)N[C@@H](CC(C)C)C(=O)N[C@@H](CO)C(=O)N[C@@H](CC(C)C)C(=O)N[C@@H](CC(=O)O)C(=O)N[C@@H](C(=O)N1CCC[C@H]1C(=O)N[C@H](C(=O)N[C@@H](CCCCN)C(=O)N[C@@H](CC(C)C)C(=O)N[C@@H](CCCCNC(=O)CC[C@H](NC(=O)CCCCCCCCCCCCCCC(=O)O)C(=O)O)C(=O)N[C@@H](CCCCN)C(=O)N[C@H](C(=O)N[C@@H](CC(C)C)C(=O)N[C@@H](CC(C)C)C(=O)N[C@@H](CCC(=O)O)C(=O)N[C@@H](CCC(N)=O)C(=O)N[C@@H](CCC(=O)O)C(=O)N[C@@H](CCCCN)C(=O)N[C@@H](CCC(N)=O)C(=O)N[C@@H](CCCCN)C(=O)N[C@@H](CCCCN)C(=O)N[C@@H](CCC(N)=O)C(=O)N[C@@H](CCCNC(=N)N)C(=O)N[C@@H](CCC(=O)O)C(=O)N[C@@H](CCC(N)=O)C(=O)N[C@@H](C)C(=O)N[C@@H](CCC(=O)O)C(=O)N[C@H](C(=O)N[C@@H](CC(N)=O)C(=O)NC1(C(=O)N[C@@H](CCC(N)=O)C(=O)N[C@H](C(=O)N[C@@H](CC(C)C)C(=O)N[C@@H](C)C(=O)N[C@@H](CCC(N)=O)C(=O)N[C@H](C(N)=O)C(C)C)[C@@H](C)CC)CCNCC1)[C@@H](C)O)[C@@H](C)CC)[C@@H](C)CC)C(C)C)C(C)C
Molecule B2 registered an EC50 [nM] (cAMP) in experiment [1] of 0.39 nM. Also, in experiment [2], the “Emax (% I)” value turned out to be 24%.

B3: SEQ ID NO 47 (peptide)
peptide: Ac-IVLSLD[dV]PIKLK([γGlu-C16 diacid])KILLEQEKQKKQREQAETNAQILAQV-NH2
SMILES: CC[C@H](C)[C@H](NC(C)=O)C(=O)N[C@H](C(=O)N[C@@H](CC(C)C)C(=O)N[C@@H](CO)C(=O)N[C@@H](CC(C)C)C(=O)N[C@@H](CC(=O)O)C(=O)N[C@@H](C(=O)N1CCC[C@H]1C(=O)N[C@H](C(=O)N[C@@H](CCCCN)C(=O)N[C@@H](CC(C)C)C(=O)N[C@@H](CCCCNC(=O)CC[C@H](NC(=O)CCCCCCCCCCCCCCC(=O)O)C(=O)O)C(=O)N[C@@H](CCCCN)C(=O)N[C@H](C(=O)N[C@@H](CC(C)C)C(=O)N[C@@H](CC(C)C)C(=O)N[C@@H](CCC(=O)O)C(=O)N[C@@H](CCC(N)=O)C(=O)N[C@@H](CCC(=O)O)C(=O)N[C@@H](CCCCN)C(=O)N[C@@H](CCC(N)=O)C(=O)N[C@@H](CCCCN)C(=O)N[C@@H](CCCCN)C(=O)N[C@@H](CCC(N)=O)C(=O)N[C@@H](CCCNC(=N)N)C(=O)N[C@@H](CCC(=O)O)C(=O)N[C@@H](CCC(N)=O)C(=O)N[C@@H](C)C(=O)N[C@@H](CCC(=O)O)C(=O)N[C@H](C(=O)N[C@@H](CC(N)=O)C(=O)N[C@@H](C)C(=O)N[C@@H](CCC(N)=O)C(=O)N[C@H](C(=O)N[C@@H](CC(C)C)C(=O)N[C@@H](C)C(=O)N[C@@H](CCC(N)=O)C(=O)N[C@H](C(N)=O)C(C)C)[C@@H](C)CC)[C@@H](C)O)[C@@H](C)CC)[C@@H](C)CC)C(C)C)C(C)C
In the case of B3, the EC50 [nM] (cAMP) in experiment [1] was 0.09 nM. Further, the “Emax (% I)” value in experiment [2] was found to be 10%.

B4: SEQ ID NO 21 (peptide)
peptide: Ac-IVLSLD[dV]PIKLK([γGlu-C16 diacid])KILLKQERQKKQREQAEKN[Aib]QILEQV-NH2
SMILES: CC[C@H](C)[C@H](NC(C)=O)C(=O)N[C@H](C(=O)N[C@@H](CC(C)C)C(=O)N[C@@H](CO)C(=O)N[C@@H](CC(C)C)C(=O)N[C@@H](CC(=O)O)C(=O)N[C@@H](C(=O)N1CCC[C@H]1C(=O)N[C@H](C(=O)N[C@@H](CCCCN)C(=O)N[C@@H](CC(C)C)C(=O)N[C@@H](CCCCNC(=O)CC[C@H](NC(=O)CCCCCCCCCCCCCCC(=O)O)C(=O)O)C(=O)N[C@@H](CCCCN)C(=O)N[C@H](C(=O)N[C@@H](CC(C)C)C(=O)N[C@@H](CC(C)C)C(=O)N[C@@H](CCCCN)C(=O)N[C@@H](CCC(N)=O)C(=O)N[C@@H](CCC(=O)O)C(=O)N[C@@H](CCCNC(=N)N)C(=O)N[C@@H](CCC(N)=O)C(=O)N[C@@H](CCCCN)C(=O)N[C@@H](CCCCN)C(=O)N[C@@H](CCC(N)=O)C(=O)N[C@@H](CCCNC(=N)N)C(=O)N[C@@H](CCC(=O)O)C(=O)N[C@@H](CCC(N)=O)C(=O)N[C@@H](C)C(=O)N[C@@H](CCC(=O)O)C(=O)N[C@@H](CCCCN)C(=O)N[C@@H](CC(N)=O)C(=O)NC(C)(C)C(=O)N[C@@H](CCC(N)=O)C(=O)N[C@H](C(=O)N[C@@H](CC(C)C)C(=O)N[C@@H](CCC(=O)O)C(=O)N[C@@H](CCC(N)=O)C(=O)N[C@H](C(N)=O)C(C)C)[C@@H](C)CC)[C@@H](C)CC)[C@@H](C)CC)C(C)C)C(C)C
As to B4, in experiment [1], the EC50 [nM] (cAMP) came to 0.34 nM. Besides, in experiment [2], the “Emax (% I)” value amounted to 5%.

B5: SEQ ID NO 79 (peptide)
peptide: Butyryl-VLSLD[dV]PIKLK([γGlu-C16 diacid])KILLEQEKQKKQREQAETN[Aib]QILAQV-NH2
SMILES: CCCC(=O)N[C@H](C(=O)N[C@@H](CC(C)C)C(=O)N[C@@H](CO)C(=O)N[C@@H](CC(C)C)C(=O)N[C@@H](CC(=O)O)C(=O)N[C@@H](C(=O)N1CCC[C@H]1C(=O)N[C@H](C(=O)N[C@@H](CCCCN)C(=O)N[C@@H](CC(C)C)C(=O)N[C@@H](CCCCNC(=O)CC[C@H](NC(=O)CCCCCCCCCCCCCCC(=O)O)C(=O)O)C(=O)N[C@@H](CCCCN)C(=O)N[C@H](C(=O)N[C@@H](CC(C)C)C(=O)N[C@@H](CC(C)C)C(=O)N[C@@H](CCC(=O)O)C(=O)N[C@@H](CCC(N)=O)C(=O)N[C@@H](CCC(=O)O)C(=O)N[C@@H](CCCCN)C(=O)N[C@@H](CCC(N)=O)C(=O)N[C@@H](CCCCN)C(=O)N[C@@H](CCCCN)C(=O)N[C@@H](CCC(N)=O)C(=O)N[C@@H](CCCNC(=N)N)C(=O)N[C@@H](CCC(=O)O)C(=O)N[C@@H](CCC(N)=O)C(=O)N[C@@H](C)C(=O)N[C@@H](CCC(=O)O)C(=O)N[C@H](C(=O)N[C@@H](CC(N)=O)C(=O)NC(C)(C)C(=O)N[C@@H](CCC(N)=O)C(=O)N[C@H](C(=O)N[C@@H](CC(C)C)C(=O)N[C@@H](C)C(=O)N[C@@H](CCC(N)=O)C(=O)N[C@H](C(N)=O)C(C)C)[C@@H](C)CC)[C@@H](C)O)[C@@H](C)CC)[C@@H](C)CC)C(C)C)C(C)C
On to B5, for which the EC50 [nM] (cAMP) in experiment [1] worked out at 0.38 nM. In addition, in experiment [2], the “Emax (% I)” value is 10%.

B6: SEQ ID NO 56 (peptide)
peptide: Ac-IVLSLD[dV]PIKLK([γGlu-C16 diacid])KILLEQEKQKKQREQAETNEQILAQV-NH2
SMILES: CC[C@H](C)[C@H](NC(C)=O)C(=O)N[C@H](C(=O)N[C@@H](CC(C)C)C(=O)N[C@@H](CO)C(=O)N[C@@H](CC(C)C)C(=O)N[C@@H](CC(=O)O)C(=O)N[C@@H](C(=O)N1CCC[C@H]1C(=O)N[C@H](C(=O)N[C@@H](CCCCN)C(=O)N[C@@H](CC(C)C)C(=O)N[C@@H](CCCCNC(=O)CC[C@H](NC(=O)CCCCCCCCCCCCCCC(=O)O)C(=O)O)C(=O)N[C@@H](CCCCN)C(=O)N[C@H](C(=O)N[C@@H](CC(C)C)C(=O)N[C@@H](CC(C)C)C(=O)N[C@@H](CCC(=O)O)C(=O)N[C@@H](CCC(N)=O)C(=O)N[C@@H](CCC(=O)O)C(=O)N[C@@H](CCCCN)C(=O)N[C@@H](CCC(N)=O)C(=O)N[C@@H](CCCCN)C(=O)N[C@@H](CCCCN)C(=O)N[C@@H](CCC(N)=O)C(=O)N[C@@H](CCCNC(=N)N)C(=O)N[C@@H](CCC(=O)O)C(=O)N[C@@H](CCC(N)=O)C(=O)N[C@@H](C)C(=O)N[C@@H](CCC(=O)O)C(=O)N[C@H](C(=O)N[C@@H](CC(N)=O)C(=O)N[C@@H](CCC(=O)O)C(=O)N[C@@H](CCC(N)=O)C(=O)N[C@H](C(=O)N[C@@H](CC(C)C)C(=O)N[C@@H](C)C(=O)N[C@@H](CCC(N)=O)C(=O)N[C@H](C(N)=O)C(C)C)[C@@H](C)CC)[C@@H](C)O)[C@@H](C)CC)[C@@H](C)CC)C(C)C)C(C)C
In turn, B6 had an EC50 [nM] (cAMP) in experiment [1] of 0.3 nM. For the same molecule, the “Emax (% I)” value in experiment [2] is 3%.
